Measurements reported in patent US20170189507A1, “NOVEL PEPTIDES AND COMBINATION OF PEPTIDES FOR USE IN IMMUNOTHERAPY AGAINST VARIOUS CANCERS” (immatics biotechnologies GmbH, priority 2015, published 2017).

Experiments:
[1] = target: HLA-A*02 (Homo sapiens, UniProt P04439, D140Y/D185E/D98H/E176V/E277Q/G131W/G231S/I119V/I121R/I166T/I218V/N151K/N90K/P208A/P217A/Q86G/Q94H/R138H/R169H); experiment: MHC binding assay (UV-ligand exchange, beta2m ELISA), HLA-A*02; details: MHC class I binding score, peptide exchange yield
Excerpt: (§1) Candidate peptides for T cell based therapies according to the present invention were further tested for their MHC binding capacity (affinity). The individual peptide-MHC complexes were produced by UV-ligand exchange, where a UV-sensitive peptide is cleaved upon UV-irradiation, and exchanged with the peptide of interest as analyzed. Only peptide candidates that can effectively bind and stabilize the peptide-receptive MHC molecules prevent dissociation of the MHC complexes. To determine the yield of the exchange reaction, an ELISA was performed based on the detection of the light chain ([…] of stabilized MHC complexes. The assay was performed as generally described in Rodenko et al. (Rodenko et al., 2006).
(§2) 96 well MAXISorp plates (NUNC) were coated over night with 2 ug/ml streptavidin in PBS at room temperature, washed 4× and blocked for 1 h at 37° C. in 2% BSA containing blocking buffer. Refolded HLA-A*02:01/MLA-001 monomers served as standards, covering the range of 15-500 ng/ml. Peptide-MHC monomers of the UV-exchange reaction were diluted 100 fold in blocking buffer. Samples were incubated for 1 h at 37° C., washed four times, incubated with 2 ug/ml HRP conjugated anti-β2m for 1 h at 37° C., washed again and detected with TMB solution that is stopped with […]. Absorption was measured at 450 nm. Candidate peptides that show a high exchange yield (preferably higher than 50%, most preferred higher than 75%) are generally preferred for a generation and production of antibodies or fragments thereof, and/or T cell receptors or fragments thereof, as they show sufficient avidity to the MHC molecules and prevent dissociation of the MHC complexes.

[2] = test system: CD8+ T cells; experiment: In vitro immunogenicity: T-cell priming with aAPCs loaded with peptide/MHC complexes and anti-CD28 antibody, pMHC multimer readout; assay type: cell-based, human; details: in vitro immunogenicity of HLA class I peptides; peptide-specific multimer+ wells after aAPC priming of CD8+ T cells
Experimental: In an aspect, the peptides are pre-screened for immunogenicity before being included in the warehouse. By way of example, and not limitation, the immunogenicity of the peptides included in the warehouse is determined by a method comprising in vitro T-cell priming through repeated stimulations of CD8+ T cells from healthy donors with artificial antigen presenting cells loaded with peptide/MHC complexes and anti-CD28 antibody.
In order to obtain information regarding the immunogenicity of the TUMAPs of the present invention, the inventors performed investigations using an in vitro T-cell priming assay based on repeated stimulations of CD8+ T cells with artificial antigen presenting cells (aAPCs) loaded with peptide/MHC complexes and anti-CD28 antibody.
In order to perform in vitro stimulations by artificial antigen presenting cells loaded with peptide-MHC complex (pMHC) and anti-CD28 antibody, the inventors first isolated CD8+ T cells from fresh HLA-A*02 leukapheresis products via positive selection using CD8 microbeads (Miltenyi Biotec, Bergisch-Gladbach, Germany) of healthy donors obtained from the University clinics Mannheim, Germany, after informed consent.
PBMCs and isolated CD8+ lymphocytes were incubated in T-cell medium (TCM) until use consisting of RPMI-Glutamax (Invitrogen, Karlsruhe, Germany) supplemented with 10% heat inactivated human AB serum (PAN-Biotech, Aidenbach, Germany), 100 U/ml Penicillin/100 μg/ml Streptomycin (Cambrex, Cologne, Germany), 1 mM sodium pyruvate (CC Pro, Oberdorla, Germany), 20 μg/ml Gentamycin (Cambrex). 2.5 ng/ml IL7 (PromoCell, Heidelberg, Germany) and 10 U/ml IL-2 (Novartis Pharma, Nurnberg, Germany) were also added to the TCM at this step.
Generation of pMHC/anti-CD28 coated beads, T-cell stimulations and readout was performed in a highly defined in vitro system using four different pMHC molecules per stimulation condition and 8 different pMHC molecules per readout condition.
The purified co-stimulatory mouse IgG2a anti human CD28 Ab 9.3 (Jung et al., 1987) was chemically biotinylated using Sulfo-N-hydroxysuccinimidobiotin as recommended by the manufacturer (Perbio, Bonn, Germany). Beads used were 5.6 μm diameter streptavidin coated polystyrene particles (Bangs Laboratories, Illinois, USA).
pMHC used for positive and negative control stimulations were A*0201/MLA-001 (peptide […] (SEQ ID NO. 303) from modified Melan-A/MART-1) and A*0201/DDX5-001 ([…] from DDX5, SEQ ID NO. 304), respectively.
800.000 beads/200 μl were coated in 96-well plates in the presence of 4×12.5 ng different biotin-pMHC, washed and 600 ng biotin anti-CD28 were added subsequently in a volume of 200 μl. Stimulations were initiated in 96-well plates by co-incubating […] CD8+ T cells with 2×10^5 washed coated beads in 200 μl TCM supplemented with 5 ng/ml IL-12 (PromoCell) for 3 days at 37° C. Half of the medium was then exchanged by fresh TCM supplemented with 80 U/ml IL-2 and incubating was continued for 4 days at 37° C. This stimulation cycle was performed for a total of three times. For the pMHC multimer readout using 8 different pMHC molecules per condition, a twodimensional combinatorial coding approach was used as previously described (Andersen et al., 2012) with minor modifications encompassing coupling to 5 different fluorochromes. Finally, multimeric analyses were performed by staining the cells with Live/dead near IR dye (Invitrogen, Karlsruhe, Germany), CD8-FITC antibody clone SK1 (BD, Heidelberg, Germany) and fluorescent pMHC multimers. For analysis, a BD LSRII SORP cytometer equipped with appropriate lasers and filters was used. Peptide specific cells were calculated as percentage of total CD8+ cells. Evaluation of multimeric analysis was done using the FlowJo software (Tree Star, Oregon, USA). In vitro priming of specific multimer+ CD8+ lymphocytes was detected by comparing to negative control stimulations.

[3] = test system: HLA-A*24; experiment: MHC binding assay (UV-ligand exchange, beta2m ELISA), HLA-A*24; design: species or system human; details: MHC class I binding score, peptide exchange yield
Excerpt: as §1, §2

**Q.** With “129 (RLQDILWFL; listed as Homo sapiens) [compound 129]” as the substance, how does the Peptide exchange [1] read?
**A.** ++++ (>=75% = ++++)

**Q.** With “120 (VTPVTVSAV; listed as Homo sapiens) [compound 120]” as the substance, how does the Peptide exchange [1] read?
**A.** + (<20% = +)

**Q.** How did the Peptide exchange [1] turn out when “229 (AILAHLNTV; listed as Homo sapiens) [compound 229]” was run?
**A.** ++++ (>=75% = ++++)

**Q.** Which results are given for “159 (LYNKGFIYL; listed as Homo sapiens) [compound 159]”?
**A.** Wells positive [%] [2]: ++++ (>=70% = ++++); Peptide exchange [3]: ++++ (>=75% = ++++)

**Q.** With “158 (HYSQELSLLYL; listed as Homo sapiens) [compound 158]” as the substance, how does the “Wells positive [%]” value [2] read?
**A.** + (<20% = +)

**Q.** And the Peptide exchange [3]?
**A.** ++++ (>=75% = ++++)

**Q.** “34 (FLLATEVVTV; listed as Homo sapiens) [compound 34]” was tested. Which Peptide exchange [1] did it give?
**A.** ++++ (>=75% = ++++)

**Q.** With “95 (GLLGSLFFL; listed as Homo sapiens) [compound 95]” as the substance, how does the Peptide exchange [1] read?
**A.** ++++ (>=75% = ++++)

**Q.** With “82 (FIFDEAEKL; listed as Homo sapiens) [compound 82]” as the substance, how does the Peptide exchange [1] read?
**A.** + (<20% = +)

**Q.** How did the Peptide exchange [1] turn out when “16 (YTLDIPVLFGV; listed as Homo sapiens) [compound 16]” was run?
**A.** ++++ (>=75% = ++++)

**Q.** “249 (GLCERLVSL; listed as Homo sapiens) [compound 249]” was tested. Which “Wells positive [%]” value [2] did it give?
**A.** + (<20% = +)

**Q.** What about the Peptide exchange [1] of the same substance?
**A.** ++++ (>=75% = ++++)

**Q.** With “14 (ILAKDLFEI; listed as Homo sapiens) [compound 14]” as the substance, how does the Peptide exchange [1] read?
**A.** ++++ (>=75% = ++++)

**Q.** For “125 (SLADYEHFV; listed as Homo sapiens) [compound 125]”, which Peptide exchange [1] is on record?
**A.** ++++ (>=75% = ++++)

**Q.** For “245 (SLLDLPLSL; listed as Homo sapiens) [compound 245]”, which Peptide exchange [1] is on record?
**A.** ++++ (>=75% = ++++)

**Q.** Which Peptide exchange [1] does the source give for “51 (LLFSRLCGA; listed as Homo sapiens) [compound 51]” here?
**A.** ++++ (>=75% = ++++)

**Q.** Which Peptide exchange [1] does the source give for “257 (GLYTDPCGV; listed as Homo sapiens) [compound 257]” here?
**A.** ++++ (>=75% = ++++)

**Q.** Which “Wells positive [%]” value [2] does the source give for “165 (DYTTWTALL; listed as Homo sapiens) [compound 165]” here?
**A.** + (<20% = +)

**Q.** What about the Peptide exchange [3] of the same substance?
**A.** ++++ (>=75% = ++++)

**Q.** Which results are given for “4 (KLMPGTYTL; listed as Homo sapiens) [compound 4]”?
**A.** Wells positive [%] [2]: + (<20% = +); Peptide exchange [1]: ++++ (>=75% = ++++)

**Q.** With “153 (FISERVEVV; listed as Homo sapiens) [compound 153]” as the substance, how does the Peptide exchange [1] read?
**A.** ++++ (>=75% = ++++)

**Q.** With “147 (YLMDDTVEI; listed as Homo sapiens) [compound 147]” as the substance, how does the Peptide exchange [1] read?
**A.** ++++ (>=75% = ++++)

**Q.** Which Peptide exchange [1] does the source give for “42 (LLDSVSRL; listed as Homo sapiens) [compound 42]” here?
**A.** + (<20% = +)

**Q.** How did the Peptide exchange [1] turn out when “112 (SLGKFTFDV; listed as Homo sapiens) [compound 112]” was run?
**A.** ++++ (>=75% = ++++)

**Q.** How did the Peptide exchange [1] turn out when “248 (YLDRFLAGV; listed as Homo sapiens) [compound 248]” was run?
**A.** ++++ (>=75% = ++++)

**Q.** How did the Peptide exchange [1] turn out when “100 (ALLGMIIVGV; listed as Homo sapiens) [compound 100]” was run?
**A.** + (<20% = +)

**Q.** With “84 (ALCPRIHEV; listed as Homo sapiens) [compound 84]” as the substance, how does the Peptide exchange [1] read?
**A.** ++++ (>=75% = ++++)

**Q.** “204 (TYELRYFQI; listed as Homo sapiens) [compound 204]” was tested. Which “Wells positive [%]” value [2] did it give?
**A.** + (<20% = +)

**Q.** And the Peptide exchange [3]?
**A.** ++++ (>=75% = ++++)

**Q.** For “133 (ALLPRLHQL; listed as Homo sapiens) [compound 133]”, which Peptide exchange [1] is on record?
**A.** ++++ (>=75% = ++++)

**Q.** “167 (NYINRILKL; listed as Homo sapiens) [compound 167]” was tested. Which “Wells positive [%]” value [2] did it give?
**A.** + (<20% = +)

**Q.** And the Peptide exchange [3]?
**A.** ++++ (>=75% = ++++)

**Q.** How did the Peptide exchange [1] turn out when “3 (KLEENGDLYL; listed as Homo sapiens) [compound 3]” was run?
**A.** ++++ (>=75% = ++++)

**Q.** “126 (QMFQYFITV; listed as Homo sapiens) [compound 126]” was tested. Which Peptide exchange [1] did it give?
**A.** ++++ (>=75% = ++++)

**Q.** With “12 (GLLPLLHRA; listed as Homo sapiens) [compound 12]” as the substance, how does the “Wells positive [%]” value [2] read?
**A.** ++++ (>=70% = ++++)

**Q.** And the Peptide exchange [1]?
**A.** ++++ (>=75% = ++++)

**Q.** “92 (GLLFSLRSV; listed as Homo sapiens) [compound 92]” was tested. Which Peptide exchange [1] did it give?
**A.** ++++ (>=75% = ++++)

**Q.** Which Peptide exchange [1] does the source give for “1 (LLYPEPWSV; listed as Homo sapiens) [compound 1]” here?
**A.** ++++ (>=75% = ++++)

**Q.** “258 (LLSERFINV; listed as Homo sapiens) [compound 258]” was tested. Which Peptide exchange [1] did it give?
**A.** ++++ (>=75% = ++++)
